# From the RNAGym collection of RNA variant scans (doi:10.1101/gr.219683.116)
# B1: mRNA-splicing (parent)
# chain: AGUUGCUGCUGGGAGCUCCAGCACAGUGAAAUGGACAGAAGGGCAGAGCAA
# Variants of: B1
# Test: exon inclusion enrichment index; higher = more inclusion; WT1 exon 5 minigene, HEK293
row,Variant,exon inclusion enrichment index
1,AGUUAUAUAUGGGAGCUCCAGCCAAGUGAAAUGGACAGAAGGGCAGAGCAA [G5A C6U U7A G8U C9A A23C C24A],0.0996
2,AGUUUCUUUUGGGAAGUCCAGCACAGUGAAAUGGACAGAAGGGCAGAGCAA [G5U G8U C9U G15A C16G],0.043
3,AGUUUACACCGGGAGCUCCAGCACAGUGAAAUGGACAGAAGGGCAGAGCAA [G5U C6A U7C G8A U10C],1.56
4,AGUUUCUUUUGGGAGCUCCAGCACAGUGAAAUGGACAUUAGGGCAGAGCAA [G5U G8U C9U G38U A39U],0.00101
5,AGUUGAAGAAGGGAGCUCCCGCACAGUGAAAUGGACAGAAGGGCAGAGCAA [C6A U7A C9A U10A A20C],0.58
6,AGUUAGGGAUGGGAGCUCCAGCACAGUGAAAUGGACAGAGUGGCAGAGCAA [G5A C6G U7G C9A A40G G41U],0.00052
7,AGUUGACGACGGGAGCUCCAGCACAGUGAAAUGGACAGAAGGGCGAAGCAA [C6A U7C C9A U10C A45G G46A],4.93
8,AGUUGACGAAUGGAGCUCCAGCACAGUGAAAUGGACAGAAGGGCAGAGCAA [C6A U7C C9A U10A G11U],2.49
9,AGUUCUUCUCGGGAGCUCCGGCACAGUGAAAUGGACAGAAGGGCAGAGCAA [G5C C6U G8C C9U U10C A20G],2.69
10,AGUUGAAGAAGGGAGCUCCAGCACAGUGAAAUGGACAUGAGGGCAGAGCAA [C6A U7A C9A U10A G38U A39G],0.321
11,AGUUAUAUAUGGGAGCUCCAGCACAGUGAAAUGGACAGAAGGGCAAGGCAA [G5A C6U U7A G8U C9A G46A A47G],0.0237
12,AGUUACCACCGGGAGCUCCAGGCCAGUGAAAUGGACAGAAGGGCAGAGCAA [G5A U7C G8A U10C C22G A23C],1.24
13,AGUUAUAUAUGGGAGCUCCAGCACUAUGAAAUGGACAGAAGGGCAGAGCAA [G5A C6U U7A G8U C9A A25U G26A],0.0732
14,AGUUGCUGCUGGCGGCUCCAGCACAGUGAAAUGGACAGAAGGGCAGAGCAA [G13C A14G],0.42
15,AGUUCGCGCCGGGAGCUUAAGCACAGUGAAAUGGACAGAAGGGCAGAGCAA [G5C C6G U7C U10C C18U C19A],0.76
16,AGUUAGGGAUGGGAGCUCCAGCACAGUGAAGGGGACAGAAGGGCAGAGCAA [G5A C6G U7G C9A A31G U32G],0.0039
17,AGUUGAAGAAGGGAUAUCCAGCACAGUGAAAUGGACAGAAGGGCAGAGCAA [C6A U7A C9A U10A G15U C16A],0.381
18,AGUUCGCGCCGGGAGCUCCAGCACAGUGAAAUGGACAGAAGUGCAGAGCAA [G5C C6G U7C U10C G42U],4.02
19,AGUUGACGACGGGAGCUCCACAACAGUGAAAUGGACAGAAGGGCAGAGCAA [C6A U7C C9A U10C G21C C22A],3.4
20,AGUUAUACGUGGGAGCUCCAGCACAGUGAAAUGGACAGAAGGGCAGAGCAA [G5A C6U U7A G8C C9G],0.736
21,AGUUGCUGCUGGGAGCUCCAGCACAGUGACAUGGACAGAAGGGCAGAGCAA [A30C],0.184
22,AGUUGCUGCUGGGAGCUCCAGCACAGUGAAAUGCCCAGAAGGGCAGAGCAA [G34C A35C],0.00408
23,AGUUUCUUUUGGGAGCUCCAGCACAGUGAAAUGGACAGAAUUGCAGAGCAA [G5U G8U C9U G41U G42U],0.11
24,AGUUCGCGCACGGAGCUCCAGCACAGUGAAAUGGACAGAAGGGCAGAGCAA [G5C C6G U7C U10A G11C],3.41
25,AGUUGAAGAGUGGAGCUCCAGCACAGUGAAAUGGACAGAAGGGCAGAGCAA [C6A U7A C9A U10G G11U],1.14
26,AGUUCUUCUCGGGAGCUCCAGCACACCGAAAUGGACAGAAGGGCAGAGCAA [G5C C6U G8C C9U U10C G26C U27C],3.12

row,Variant,exon inclusion enrichment index
1,AGUUCACACAGGGAGCUCCAGCACAGUGCGAUGGACAGAAGGGCAGAGCAA [G5C C6A U7C G8A U10A A29C A30G],0.291
2,AGUUCGCGCCGGGAGCUCCAGCACAGUGAAAAUGACAGAAGGGCAGAGCAA [G5C C6G U7C U10C U32A G33U],2.76
3,AGUUAGGGAUGGGAGCUCCAGCACAGUUGAAUGGACAGAAGGGCAGAGCAA [G5A C6G U7G C9A G28U A29G],0.00238
4,AGUUGCUGCUGUAAGCUCCAGCACAGUGAAAUGGACAGAAGGGCAGAGCAA [G12U G13A],0.608
5,AGUUACCACCGGGAGCUCCAGCACAGUGAACAGGACAGAAGGGCAGAGCAA [G5A U7C G8A U10C A31C U32A],1.81
6,AGUUAUUUUUGGGAGCUCCAGCACAGUGAAAUGGACAGAAGGGCAGAGCAA [G5A C6U G8U C9U],0.0357
7,AGUUUCUUUUGGGAGCUCCAGCACAGUGAAAUGGGCAGAAGGGCAGAGCAA [G5U G8U C9U A35G],0.0347
8,AGUUCGCGCCCCGAGCUCCAGCACAGUGAAAUGGACAGAAGGGCAGAGCAA [G5C C6G U7C U10C G11C G12C],1.04
9,AGUUGAAGAAGGGAGCUCCAGCACAGUAGAAUGGACAGAAGGGCAGAGCAA [C6A U7A C9A U10A G28A A29G],0.227
10,AGUUCGCGCCGGGAGCUCCAGCACAGUGAAAUAAACAGAAGGGCAGAGCAA [G5C C6G U7C U10C G33A G34A],0.795
11,AGUUAUAUAUGGGAGCUCCAGCACAGUGAAAUGGACAGAAGUGCAGAGCAA [G5A C6U U7A G8U C9A G42U],0.107
12,AGUUGACGACGGGAGCUCCAGCACAGUGAAAUGGACAGAAGGGAGGAGCAA [C6A U7C C9A U10C C44A A45G],4.86
13,AGUUGAUCUCGGGAGCUCCAGCACAGUGAAAUGGACAGAAGGGCAGAGCAA [C6A G8C C9U U10C],1.43
14,AGUUGCUGCUGGGAGCUCCAGCACAGUUGAAUGGACAGAAGGGCAGAGCAA [G28U A29G],0.0875
15,AGUUGACGACGGGAGCUCCAGAACAGUGAAAUGGACAGAAGGGCAGAGCAA [C6A U7C C9A U10C C22A],3.18
16,AGUUCACACAGGGAGCUCCAGCACAGUGAAAUGGCGAGAAGGGCAGAGCAA [G5C C6A U7C G8A U10A A35C C36G],0.107
17,AGUUACCACCGGGACUUCCAGCACAGUGAAAUGGACAGAAGGGCAGAGCAA [G5A U7C G8A U10C G15C C16U],2.28
18,AGUUCUUCUCGGGAGCUCCAGCACAGUGAAAUGGUUAGAAGGGCAGAGCAA [G5C C6U G8C C9U U10C A35U C36U],0.0294
19,AGUUAGGGAUGGGAGCUCCAGCACAGUGAAAUGGACCUAAGGGCAGAGCAA [G5A C6G U7G C9A A37C G38U],0.000751
20,AGUUAGGGAUGGGCGCUCCAGCACAGUGAAAUGGACAGAAGGGCAGAGCAA [G5A C6G U7G C9A A14C],0.000759
21,AGUAAGGGAUGGGAGCUCCAGCACAGUGAAAUGGACAGAAGGGCAGAGCAA [U4A G5A C6G U7G C9A],0.0163
22,AGUUGCCGAAGGGAGCUCCAGCACAGUGAAAUGGACAGAAGGGCAGAGCAA [U7C C9A U10A],1.64
23,AGUUACCACCGGGAGCUCCAUGACAGUGAAAUGGACAGAAGGGCAGAGCAA [G5A U7C G8A U10C G21U C22G],2.27
24,AGUUGAAGAAGGGAGCUCCAGCACAGUGAAAUGGACAGAUAGGCAGAGCAA [C6A U7A C9A U10A A40U G41A],0.0256
25,AGUUCUUCUCGGGAGCUCCAGCACAGUGAAAUGGAGUGAAGGGCAGAGCAA [G5C C6U G8C C9U U10C C36G A37U],0.948
